For orientation: IC50 means the concentration that inhibits the measured activity by half.

Here are results for six molecules from publication PMC12714728 (npj Viruses, 2025).

Starred links: 1 amine or outer side, 2 acyl side, 3 side chain; linkers in the order of their positions; H or OH if unused. Positions of bridges follow the written chain, without caps; N, C: chain ends. No end group written: not given here. Suc = O=C(CCC(=O)[*:2])[*:1]

Experiment [1] has as its target T1, hemagglutinin (HA) ectodomain of A/Vietnam/1203/2004 (H5N1) (influenza A virus A/Vietnam/1203/2004 …). Kind of experiment: AlphaScreen or HTRF. The following applies: both partners purified.
Experiment [2] concerns the target T1, hemagglutinin (HA) ectodomain of …. Kind of experiment: cell-based or functional assay.

B1: cyclic peptide CP11 (peptide)
peptide: CYRDPLGVAGGMC
modifications: disulfide 1-13
notes: source: synthetic peptide (manual solid phase Fmoc chemistry, iodine oxidation, RP-HPLC)
B1: the IC50 in experiment [1] is 7.78 µM.

As for CYRDPLGVAGEMC (not fully specified; cysteine pairing not given here) [cyclic peptide CP13], in experiment [1], the IC50 was determined as 39.8 µM.

B2: cyclic peptide CP14 (peptide)
peptide: LYEDPLGVAGGMG
modifications: head-to-tail lactam cyclized (no template)
notes: source: synthetic peptide (manual solid phase Fmoc chemistry, RP-HPLC)
As for B2, inhibition in experiment [1] was half-maximal at 10 µM (IC50).

B3: linear peptide LP1 (peptide)
peptide: Suc-VSLYRDPLGVAGGMGVY-NH2
notes: as for B2
In experiment [1], B3 gave an IC50 of 47.9 µM.

B4: cyclic peptide CP8 (peptide)
peptide: CLYRDPLGVAGGMGC
modifications: not fully specified (bridges); cysteine pairing not given here
notes: as for B1
The molecule B4 registered a half-maximal inhibitory concentration (IC50) in experiment [1] of 1.55 µM. Also, the “virus neutralization assay (VNA) EC50, H5/Viet virus” value in experiment [2] came to 34.6 µM.

Molecule CYEDPLGVAGGMC (not fully specified; cysteine pairing not given here) [cyclic peptide CP12] displayed an IC50 in experiment [1] of 28.8 µM.
